± gives the uncertainty stated by the source.

This data set in a line: amyloid nucleation score (Sup35N fusion, yeast selection) (log enrichment); library NNK3; higher = more nucleation; inactive = no reads after selection. The method in brief: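 Peptides of 20 random codons, each fused to Sup35N, were expressed in psi-negative yeast. Cells were induced with 100 μM copper sulfate for 24 hours and grown 7 days at 30°C on medium lacking adenine and uracil, and plasmid inserts before and after selection were Illumina-sequenced. Nucleation scores are DiMSum log enrichments of output over input reads, centred on the mode score of non-aggregating sequences, and sequences under 100 input reads were excluded.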
Regarding VEYQNI, the amyloid nucleation score result is “inactive”.
Consider VGRRDN, for which the amyloid nucleation score result is “inactive”.
Take YSRFDWVNLVIVGHYRTLFS: the amyloid nucleation score result was “inactive”.
For NDFSPVRWTVLDTDDPK, the amyloid nucleation score entry was “inactive”.
To RCFKLLNSTECCSKWVRAFS belongs “inactive”; to FVGRFCMFNLGRCLPIVLGS, “inactive”; to KICVPSCSCTIFLDLFRY, 2.56 ± 0.08.
As to TNNRKRLYYWFERVTSE, the amyloid nucleation score result is “inactive”.
Next, KFVVDARFVTS: 1.33 ± 0.13; IVESQRDASVLRSIPSIRIN: “inactive”.
Next, SYTSFSHSPCTVLMKTWPPK: “inactive”; SSKNINVILMIKR: 2.05 ± 0.066; LLIQNV: “inactive”.
Next, VINVT: “inactive”; GFHTI: -0.223 ± 0.73.
Regarding SNEEYGGSQKETCTIGSSLG, the amyloid nucleation score entry is “inactive”.
Next, VWETATNFSISMLWRQAFRM: “inactive”; FFVLLLFVRVYKIALNFMMG: “inactive”; NVRTLNSLDDLGVSFSSACT: “inactive”.
For VSTGSAGSLWSV, the amyloid nucleation score entry is “inactive”.
Regarding NKVLFYVTYLFFIRNFLV, the amyloid nucleation score entry is “inactive”.
To RVLGKRGGRKH belongs “inactive”.
In the case of PGLLLNRMLDARFM, the amyloid nucleation score result was “inactive”.
Next, RRLSSHLFMLWYMVR: “inactive”; GIRVSLGVSFRECFNNSVSR: 2.43 ± 0.053.
The substance LTGACVLNR returned an amyloid nucleation score of 0.106 ± 1.
As for LNADVTMLKSNGVMTIT, the amyloid nucleation score entry was “inactive”.
Take WPTFDCRRM: the amyloid nucleation score result is “inactive”.
Next, FLNLHTVCC: “inactive”; HHLSSDVSVLAFCNLPESNR: 1.21 ± 0.17.
To STDQSASRVSERQLLCLPLT belongs “inactive”.
Turning to EFVRVLRDISLVSGVMGYHY, the amyloid nucleation score result was “inactive”.
Take VKDSLMGCKIPCN: the amyloid nucleation score entry was “inactive”.
To VEIKYSVFLRWHVMRDDRLD belongs “inactive”.
As for NIRKPDMYLITVCWESSQAL, the amyloid nucleation score result is “inactive”.
To NLFSRIVHSGLRMSTNCILI belongs “inactive”; to WTSSVILRPSMCLLGWYMLV, “inactive”.
With TCAPMTITFSCHNNLFKC, the amyloid nucleation score was found to be 2.65 ± 0.058.
Next, VCTTMCDTRWVTISYF: “inactive”; LDMPCILLYLRSNWGRFG: “inactive”; SFHASGQSSLYKKGDLSTCV: “inactive”.
Next, EDYRVGW: “inactive”; VCLHFMGLRVAFLAGMFIII: “inactive”; AVSAVCSAVCGLMSSSTDMD: 0.527 ± 0.26.
Next, SRKGDMPLDIDSWTCTVAFF: 1.13 ± 0.12.
As to DVCRTQSFGVAKTVIFCFLF, the amyloid nucleation score result is “inactive”.
To LEYKYVGLSKFDALIRQWFL belongs “inactive”; to FSRFIRQ, 0.677 ± 0.15; to SWYEYCLINSLRKGSGYKEP, “inactive”.
As for TIHIHFVGHDVCNRVVGVHH, the amyloid nucleation score is 1.24 ± 0.18.
In the case of CRGLLYISVNYNMILFQHTR, the amyloid nucleation score result is “inactive”.
Turning to FGYPMPIRNVSVVPVLFYKG, the amyloid nucleation score entry is “inactive”.
Next, SRVTSIWRGYNFINIKRGDL: -0.42 ± 1.3; PRNFVANPVELNKGKDFIPS: “inactive”.
Substance MIRYSVQ returned an amyloid nucleation score of 0.131 ± 0.24.
Consider LNCMVITFVCFLVSNSIGGD, for which the amyloid nucleation score came to 1.71 ± 0.11.
To IPVFMLLMYRVSMMDSSSKS belongs “inactive”; to GWHQVTGFMYAIVFVTART, “inactive”; to MSTVRHVRWRQGQGKMRGRK, “inactive”.
To GSYFN belongs “inactive”; to LLTFSH, “inactive”; to VECCNGLCDDVLGAVGNLGL, “inactive”.
WDDEFVWSGINN: the amyloid nucleation score result is “inactive”.
Next, NCPSWGGFGIATSGQR: “inactive”; CNSYTYVEGSNYNGSSQGLD: “inactive”; YYRFLQWSGGNLWTPRWAPC: “inactive”.
Next, VSFQD: “inactive”.
Next, VLYYCGFSITARKSEKLVWP: “inactive”; ISGFKIVSYMNKIVVSTMGL: “inactive”.
For the substance SIFFIKTYESFDSSLFKSSS, the amyloid nucleation score result was “inactive”.
In turn, RLTARLINGMDY gave an amyloid nucleation score of 1.27 ± 0.1.
To THGIMLGFEECLGVYTFMCG belongs “inactive”; to YFVLFVRQCVKLVMRFGSED, “inactive”; to SSARAKWSDQQMSSYRA, “inactive”.
In the case of PRDYMINNLLVFQSRG, the amyloid nucleation score entry is “inactive”.
Substance QKHNSIFMLAVCCYKSCKQ gave an amyloid nucleation score of 1.07 ± 0.084.
Regarding FLRLCLVVRLRCVVISMGNY, the amyloid nucleation score entry was “inactive”.
Regarding MILNINVMYYFMYEGKIVMP, the amyloid nucleation score is 2.7 ± 0.049.
In the case of KYFRNLTVRKTKWE, the amyloid nucleation score result is “inactive”.
For the substance NTHKQWVRTLRWVLVSYNCC, the amyloid nucleation score entry is “inactive”.
To SSFYCRAFGDRNVWKWQWCL belongs “inactive”; to SVSYFWFARL, -0.005 ± 0.98; to DYSFYTFPESAVLCTCSSYG, -0.682 ± 1.1.
In the case of SAVRHRLWVVGLASTRLYEC, the amyloid nucleation score was -0.24 ± 1.1.
For GGHLLGHIASVFMEFCALQC, the amyloid nucleation score result is “inactive”.
To KLVQLYTLKFFGLNCSKSVI belongs “inactive”; to VKYYDFCEPGRGYKDIRRL, “inactive”; to LMLEISIHLLLYRVSISGYF, “inactive”.
Consider EDLSVNNSAYVFPSLE, for which the amyloid nucleation score entry is “inactive”.
To PRRSERYFCFF belongs 0.443 ± 0.23; to RSVQSVFNTIGCQTYVSPVW, “inactive”.
To EYLPEQPVCIVMSYTPKFPC belongs “inactive”; to AKGAMLCTMT, “inactive”; to LQGQHDAHWQSCSRLSECSQ, “inactive”.
Next, LGTTSYRV: “inactive”.
For ECLLPKIAMHVKRMVPQFGT, the amyloid nucleation score entry was “inactive”.
Take LRLVKYNAGIHYGSVGPQFL: the amyloid nucleation score result is “inactive”.
In the case of GCSSVRAGH, the amyloid nucleation score entry is “inactive”.
Take VFLCMGTYDTCFL: the amyloid nucleation score worked out at 0.638 ± 0.16.
To WGSMMSWQVKFVSILNPLPR belongs “inactive”.
Regarding CSRIRLMGFDWLAPIPHA, the amyloid nucleation score entry was “inactive”.
To AVIRFCPGRNSESDSRAHRP belongs “inactive”; to TRERWTTVYLNKLFLLCYSD, “inactive”; to CPTCWRYVNIRYSI, “inactive”.
To DVMKICMKLSLHICTVHISS belongs “inactive”; to LFNYVSMPANSSSRYTGMLL, “inactive”; to PFFRASRLWLSLVRMRTLSV, “inactive”.
Next, LSIYYEFFLSETNFCYMLRC: 0.766 ± 0.15; RYTMAVWRLMSCNSVKSVAL: “inactive”; ILTGILDFFFGTSNSRYRNG: “inactive”.
Turning to IWCQRYYAIGRRVPKASYDG, the amyloid nucleation score is -0.179 ± 0.78.
Next, RIRALLD: “inactive”; TLLFFCLEQTFNWFIMIQ: “inactive”; FIRLFEYMRGLPLLVKNDSV: 0.234 ± 0.72.
Next, CAYPVKKCMPYQYMKKFVLV: “inactive”.
As for VIDRNWRRLHSWVGLVGRAR, the amyloid nucleation score entry is “inactive”.
RTLSNFSGKVVLLI: the amyloid nucleation score entry was “inactive”.
With CAWVHIS, the amyloid nucleation score result was “inactive”.
With WISIVQW, the amyloid nucleation score result is “inactive”.
To MFLLMNKV belongs “inactive”.
On to SDDRIT, for which the amyloid nucleation score result was “inactive”.
Next, NRQSLGIRSYFC: “inactive”; NSMRVKVRTLTVYISEFTVS: “inactive”.
With KPCSLIRWPIKASMFSYVHS, the amyloid nucleation score result is “inactive”.
Regarding LCLGFVHPVIPFWIAML, the amyloid nucleation score result is “inactive”.
Consider SLRFMLWLLL, for which the amyloid nucleation score entry is “inactive”.
For the substance DVNCALYGKGLDVCRI, the amyloid nucleation score entry is “inactive”.
As to SFLSYCC, the amyloid nucleation score entry is “inactive”.
On to QRFPKCI, for which the amyloid nucleation score result was “inactive”.
Regarding AGGCDRYVHPRFLDKRSSWS, the amyloid nucleation score result is “inactive”.
For the substance VFKCCVLFGGSRWFTLFLWF, the amyloid nucleation score result was “inactive”.
Next, SVNSVHLMRSSEVGTHEGVG: “inactive”.

These data come from the supplement of paper PMC12042874.
